IntAct's records for PubMed 31515488

B1: Adenylate kinase 8 (Homo sapiens), Q96MA6 (parent)
chain: MDATIAPHRIPPEMPQYGEENHIFELMQNMLEQLLIHQPEDPIPFMIQHLHRDNDNVPRIVILGPPASGKTTIAMWLCKHLNSSLLTLENLILNEFSYTATEARRLYLQRKTVPSALLVQLIQERLAEEDCIKQGWILDGIPETREQALRIQTLGITPRHVIVLSAPDTVLIERNLGKRIDPQTGEIYHTTFDWPPESEIQNRLMVPEDISELETAQKLLEYHRNIVRVIPSYPKILKVISADQPCVDVFYQALTYVQSNHRTNAPFTPRVLLLGPVGSGKSLQAALLAQKYRLVNVCCGQLLKEAVADRTTFGELIQPFFEKEMAVPDSLLMKVLSQRLDQQDCIQKGWVLHGVPRDLDQAHLLNRLGYNPNRVFFLNVPFDSIMERLTLRRIDPVTGERYHLMYKPPPTMEIQARLLQNPKDAEEQVKLKMDLFYRNSADLEQLYGSAITLNGDQDPYTVFEYIESGIINPLPKKIP
B2: Tuftelin-interacting protein 11 (Homo sapiens), Q9UBB9 (parent)
chain: MSLSHLYRDGEGRIDDDDDERENFEITDWDLQNEFNPNRQRHWQTKEEATYGVWAERDSDDERPSFGGKRARDYSAPVNFISAGLKKGAAEEAELEDSDDEEKPVKQDDFPKDFGPRKLKTGGNFKPSQKGFAGGTKSFMDFGSWERHTKGIGQKLLQKMGYVPGRGLGKNAQGIINPIEAKQRKGKGAVGAYGSERTTQSMQDFPVVDSEEEAEEEFQKELSQWRKDPSGSKKKPKYSYKTVEELKAKGRISKKLTAPQKELSQVKVIDMTGREQKVYYSYSQISHKHNVPDDGLPLQSQQLPQSGKEAKAPGFALPELEHNLQLLIDLTEQEIIQNDRQLQYERDMVVNLFHELEKMTEVLDHEERVISNLSKVLEMVEECERRMQPDCSNPLTLDECARIFETLQDKYYEEYRMSDRVDLAVAIVYPLMKEYFKEWDPLKDCTYGTEIISKWKSLLENDQLLSHGGQDLSADAFHRLIWEVWMPFVRNIVTQWQPRNCDPMVDFLDSWVHIIPVWILDNILDQLIFPKLQKEVENWNPLTDTVPIHSWIHPWLPLMQARLEPLYSPIRSKLSSALQKWHPSDSSAKLILQPWKDVFTPGSWEAFMVKNIVPKLGMCLGELVINPHQQHMDAFYWVIDWEGMISVSSLVGLLEKHFFPKWLQVLCSWLSNSPNYEEITKWYLGWKSMFSDQVLAHPSVKDKFNEALDIMNRAVSSNVGAYMQPGARENIAYLTHTERRKDFQYEAMQERREAENMAQRGIGVAASSVPMNFKDLIETKAEEHNIVFMPVIGKRHEGKQLYTFGRIVIYIDRGVVFVQGEKTWVPTSLQSLIDMAK
partner: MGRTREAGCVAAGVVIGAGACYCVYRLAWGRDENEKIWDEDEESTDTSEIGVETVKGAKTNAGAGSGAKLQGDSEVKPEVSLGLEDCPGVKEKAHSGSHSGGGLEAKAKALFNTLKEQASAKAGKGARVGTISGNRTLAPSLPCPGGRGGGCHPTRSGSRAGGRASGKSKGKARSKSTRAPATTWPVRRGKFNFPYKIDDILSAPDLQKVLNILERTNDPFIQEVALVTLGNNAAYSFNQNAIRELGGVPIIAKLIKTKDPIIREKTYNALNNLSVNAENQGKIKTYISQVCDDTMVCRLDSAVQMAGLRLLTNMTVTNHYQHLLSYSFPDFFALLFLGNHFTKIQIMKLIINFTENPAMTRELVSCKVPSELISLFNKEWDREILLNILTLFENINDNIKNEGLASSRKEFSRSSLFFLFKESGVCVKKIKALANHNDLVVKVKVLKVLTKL
B3: Scaffold protein ILK (Homo sapiens), Q13418 (parent)
chain: MDDIFTQCREGNAVAVRLWLDNTENDLNQGDDHGFSPLHWACREGRSAVVEMLIMRGARINVMNRGDDTPLHLAASHGHRDIVQKLLQYKADINAVNEHGNVPLHYACFWGQDQVAEDLVANGALVSICNKYGEMPVDKAKAPLRELLRERAEKMGQNLNRIPYKDTFWKGTTRTRPRNGTLNKHSGIDFKQLNFLTKLNENHSGELWKGRWQGNDIVVKVLKVRDWSTRKSRDFNEECPRLRIFSHPNVLPVLGACQSPPAPHPTLITHWMPYGSLYNVLHEGTNFVVDQSQAVKFALDMARGMAFLHTLEPLIPRHALNSRSVMIDEDMTARISMADVKFSFQCPGRMYAPAWVAPEALQKKPEDTNRRSADMWSFAVLLWELVTREVPFADLSNMEIGMKVALEGLRPTIPPGISPHVCKLMKICMNEDPAKRPKFDMIVPILEKMQDK
partner: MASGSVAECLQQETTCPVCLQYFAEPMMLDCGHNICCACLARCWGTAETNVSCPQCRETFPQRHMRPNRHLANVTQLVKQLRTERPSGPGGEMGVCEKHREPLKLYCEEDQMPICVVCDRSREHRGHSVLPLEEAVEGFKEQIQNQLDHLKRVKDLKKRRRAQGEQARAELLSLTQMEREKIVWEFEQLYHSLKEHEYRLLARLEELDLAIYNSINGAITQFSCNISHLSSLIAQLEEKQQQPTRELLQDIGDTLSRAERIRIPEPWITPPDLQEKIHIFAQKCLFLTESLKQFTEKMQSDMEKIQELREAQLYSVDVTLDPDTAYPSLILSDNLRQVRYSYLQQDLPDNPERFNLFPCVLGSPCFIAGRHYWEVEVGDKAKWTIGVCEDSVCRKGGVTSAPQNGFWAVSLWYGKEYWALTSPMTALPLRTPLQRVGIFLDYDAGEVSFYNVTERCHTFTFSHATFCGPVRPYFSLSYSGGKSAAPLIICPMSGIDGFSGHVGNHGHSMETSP
B4: Tetratricopeptide repeat protein 5 (Homo sapiens), Q8N0Z6 (parent)
chain: MMADEEEEVKPILQKLQELVDQLYSFRDCYFETHSVEDAGRKQQDVQKEMEKTLQQMEEVVGSVQGKAQVLMLTGKALNVTPDYSPKAEELLSKAVKLEPELVEAWNQLGEVYWKKGDVAAAHTCFSGALTHCRNKVSLQNLSMVLRQLRTDTEDEHSHHVMDSVRQAKLAVQMDVHDGRSWYILGNSYLSLYFSTGQNPKISQQALSAYAQAEKVDRKASSNPDLHLNRATLHKYEESYGEALEGFSRAAALDPAWPEPRQREQQLLEFLDRLTSLLESKGKVKTKKLQSMLGSLRPAHLGPCSDGHYQSASGQKVTLELKPLSTLQPGVNSGAVILGKVVFSLTTEEKVPFTFGLVDSDGPCYAVMVYNIVQSWGVLIGDSVAIPEPNLRLHRIQHKGKDYSFSSVRVETPLLLVVNGKPQGSSSQAVATVASRPQCE
B5: Tuftelin-interacting protein 11 (Homo sapiens), Q9UBB9 (parent)
chain: B2 chain
partner: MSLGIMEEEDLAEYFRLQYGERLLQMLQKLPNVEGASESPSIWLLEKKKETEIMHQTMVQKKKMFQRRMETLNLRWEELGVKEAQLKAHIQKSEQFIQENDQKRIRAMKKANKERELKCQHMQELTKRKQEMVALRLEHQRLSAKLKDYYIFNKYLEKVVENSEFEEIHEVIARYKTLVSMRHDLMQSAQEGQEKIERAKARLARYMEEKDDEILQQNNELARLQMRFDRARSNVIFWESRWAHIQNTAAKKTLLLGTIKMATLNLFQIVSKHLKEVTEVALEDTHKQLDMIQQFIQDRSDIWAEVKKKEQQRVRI
B6: Scaffold protein ILK (Homo sapiens), Q13418 (parent)
chain: B3 chain
partner: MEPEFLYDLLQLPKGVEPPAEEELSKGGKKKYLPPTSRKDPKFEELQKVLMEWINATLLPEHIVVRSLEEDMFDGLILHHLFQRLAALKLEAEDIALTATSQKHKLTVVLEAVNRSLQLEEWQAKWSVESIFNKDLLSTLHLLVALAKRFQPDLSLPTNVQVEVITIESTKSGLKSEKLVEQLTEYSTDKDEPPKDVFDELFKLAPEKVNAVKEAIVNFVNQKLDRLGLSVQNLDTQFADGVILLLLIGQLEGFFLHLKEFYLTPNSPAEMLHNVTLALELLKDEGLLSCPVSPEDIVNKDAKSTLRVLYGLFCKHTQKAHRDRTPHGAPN
B7: Max-like protein X (Homo sapiens), Q9UH92 (parent)
chain: MTEPGASPEDPWVKASPVGAHAGEGRAGRARARRGAGRRGASLLSPKSPTLSVPRGCREDSSHPACAKVEYAYSDNSLDPGLFVESTRKGSVVSRANSIGSTSASSVPNTDDEDSDYHQEAYKESYKDRRRRAHTQAEQKRRDAIKRGYDDLQTIVPTCQQQDFSIGSQKLSKAIVLQKTIDYIQFLHKEKKKQEEEVSTLRKDVTALKIMKVNYEQIVKAHQDNPHEGEDQVSDQVKFNVFQGIMDSLFQSFNASISVASFQELSACVFSWIEEHCKPQTLREIVIGVLHQLKNQLY
B8: Transcription factor 12 (Homo sapiens), Q99081-3 (parent)
chain: MNPQQQRMAAIGTDKELSDLLDFSAMFSPPVNSGKTRPTTLGSSQFSGSGIDERGGTTSWGTSGQPSPSYDSSRGFTDSPHYSDHLNDSRLGAHEGLSPTPFMNSNLMGKTSERGSFSLYSRDTGLPGCQSSLLRQDLGLGSPAQLSSSGKPGTAYYSFSATSSRRRPLHDSAALDPLQAKKVRKVPPGLPSSVYAPSPNSDDFNRESPSYPSPKPPTSMFASTFFMQDGTHNSSDLWSSSNGMSQPGFGGILGTSTSHMSQSSSYGNLHSHDRLSYPPHSVSPTDINTSLPPMSSFHRGSTSSSPYVAASHTPPINGSDSILGTRGNAAGSSQTGDALGKALASIYSPDHTSSSFPSNPSTPVGSPSPLTGTSQWPRPGGQAPSSPSYENSLHSLKNRVEQQLHEHLQDAMSFLKDVCEQSRMEDRLDRLDDAIHVLRNHAVGPSTSLPAGHSDIHSLLGPSHNAPIGSLNSNYGGSSLVASSRSASMVGTHREDSVSLNGNHSVLSSTVTTSSTDLNHKTQENYRGGLQSQSGTVVTTEIKTENKEKDENLHEPPSSDDMKSDDESSQKDIKVSSRGRTSSTNEDEDLNPEQKIEREKERRMANNARERLRVRDINEAFKELGRMCQLHLKSEKPQTKLLILHQAVAVILSLEQQVRERNLNPKAACLKRREEEKVSAVSAEPPTTLPGTHPGLSETTNPMGHM

Variants of: B1
Conditions: with mcm7_human MCM7, P33993
mcm7_human MCM7, P33993, sequence (P33993 whole entry): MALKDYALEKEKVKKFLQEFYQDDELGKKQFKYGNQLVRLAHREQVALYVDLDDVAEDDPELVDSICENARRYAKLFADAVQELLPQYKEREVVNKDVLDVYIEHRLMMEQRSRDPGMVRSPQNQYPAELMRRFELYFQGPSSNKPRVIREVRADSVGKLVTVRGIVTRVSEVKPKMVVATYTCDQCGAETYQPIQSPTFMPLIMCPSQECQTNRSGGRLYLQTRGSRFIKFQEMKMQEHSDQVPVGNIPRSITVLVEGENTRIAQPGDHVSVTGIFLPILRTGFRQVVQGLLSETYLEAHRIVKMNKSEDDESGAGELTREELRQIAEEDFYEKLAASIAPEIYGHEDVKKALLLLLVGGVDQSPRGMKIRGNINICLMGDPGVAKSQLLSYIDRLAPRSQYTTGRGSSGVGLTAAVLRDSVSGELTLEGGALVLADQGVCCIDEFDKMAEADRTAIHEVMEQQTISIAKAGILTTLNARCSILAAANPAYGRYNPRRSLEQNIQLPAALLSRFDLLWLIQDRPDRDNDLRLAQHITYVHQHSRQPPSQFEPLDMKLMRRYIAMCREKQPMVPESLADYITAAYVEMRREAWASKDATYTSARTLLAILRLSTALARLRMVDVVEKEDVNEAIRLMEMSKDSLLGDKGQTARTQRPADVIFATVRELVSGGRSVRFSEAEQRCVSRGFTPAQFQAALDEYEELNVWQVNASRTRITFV

Variant | effect of a mutation on the interaction
V227I | with no effect
R339C | disrupting interaction strength

Variants of: B2
Conditions: with armx1_human ARMCX1, Q9P291

Variant | effect of a mutation on the interaction
R8Q | with no effect
S688L | with no effect

Variants of: B3
Conditions: with tri27_human TRIM27, P14373

Variant | effect of a mutation on the interaction
V340G | with no effect

Variants of: B4
Conditions: with kcc2d_human CAMK2D

Variant | effect of a mutation on the interaction
G424V | with no effect

Variants of: B5
Conditions: with ccd42_human CCDC42, Q96M95

Variant | effect of a mutation on the interaction
R8Q | with no effect
S688L | with no effect

Variants of: B6
Conditions: with parvg_human PARVG

Variant | effect of a mutation on the interaction
V340G | with no effect

Variants of: B7
Conditions: with gbrl2_human GABARAPL2, P60520
gbrl2_human GABARAPL2, P60520, sequence (P60520 whole entry): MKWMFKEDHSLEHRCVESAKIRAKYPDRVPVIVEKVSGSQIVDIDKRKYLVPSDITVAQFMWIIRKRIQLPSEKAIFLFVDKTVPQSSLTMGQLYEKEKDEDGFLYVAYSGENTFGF

Variant | effect of a mutation on the interaction
Q223R | with no effect

Variants of: B8
Conditions: with cdn2c_human CDKN2C

Variant | effect of a mutation on the interaction
R74G | with no effect

Variants of: B8
Conditions: with psa1_human PSMA1, P25786
psa1_human PSMA1, P25786, sequence (P25786 whole entry): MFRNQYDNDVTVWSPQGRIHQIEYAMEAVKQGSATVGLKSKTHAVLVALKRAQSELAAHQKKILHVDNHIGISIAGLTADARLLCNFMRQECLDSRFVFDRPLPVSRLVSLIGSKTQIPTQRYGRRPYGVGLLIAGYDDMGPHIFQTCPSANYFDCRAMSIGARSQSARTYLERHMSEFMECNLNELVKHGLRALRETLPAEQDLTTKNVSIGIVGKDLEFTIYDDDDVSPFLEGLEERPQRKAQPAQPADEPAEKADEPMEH

Variant | effect of a mutation on the interaction
R74G | with no effect
